# Earlier results in publication PMC10643566, “Insights into the mechanism of SARS-CoV-2 main protease autocatalytic maturation from model precursors” (Communications Biology, 2023).
# Target: MPro (SARS-CoV-2) (UniProt P0DTD1)
# Settings: cited from earlier work
substance,measurement,value
MPro (from UniProt P0DTD1),Kd,1300 nM
